Source: IntAct's records for PubMed 24473200

B1: Nucleotide exchange factor SIL1 (Homo sapiens), Q9H173 (parent)
chain: MAPQSLPSSRMAPLGMLLGLLMAACFTFCLSHQNLKEFALTNPEKSSTKETERKETKAEEELDAEVLEVFHPTHEWQALQPGQAVPAGSHVRLNLQTGEREAKLQYEDKFRNNLKGKRLDINTNTYTSQDLKSALAKFKEGAEMESSKEDKARQAEVKRLFRPIEELKKDFDELNVVIETDMQIMVRLINKFNSSSSSLEEKIAALFDLEYYVHQMDNAQDLLSFGGLQVVINGLNSTEPLVKEYAAFVLGAAFSSNPKVQVEAIEGGALQKLLVILATEQPLTAKKKVLFALCSLLRHFPYAQRQFLKLGGLQVLRTLVQEKGTEVLAVRVVTLLYDLVTEKMFAEEEAELTQEMSPEKLQQYRQVHLLPGLWEQGWCEITAHLLALPEHDAREKVLQTLGVLLTTCRDRYRQDPQLGRTLASLQAEYQVLASLELQDGEDEGYFQELLGSVNSLLKELR

Variants of: B1
Conditions: with bip_human HSPA5, P11021
Sequence of bip_human HSPA5, P11021 (P11021 whole entry): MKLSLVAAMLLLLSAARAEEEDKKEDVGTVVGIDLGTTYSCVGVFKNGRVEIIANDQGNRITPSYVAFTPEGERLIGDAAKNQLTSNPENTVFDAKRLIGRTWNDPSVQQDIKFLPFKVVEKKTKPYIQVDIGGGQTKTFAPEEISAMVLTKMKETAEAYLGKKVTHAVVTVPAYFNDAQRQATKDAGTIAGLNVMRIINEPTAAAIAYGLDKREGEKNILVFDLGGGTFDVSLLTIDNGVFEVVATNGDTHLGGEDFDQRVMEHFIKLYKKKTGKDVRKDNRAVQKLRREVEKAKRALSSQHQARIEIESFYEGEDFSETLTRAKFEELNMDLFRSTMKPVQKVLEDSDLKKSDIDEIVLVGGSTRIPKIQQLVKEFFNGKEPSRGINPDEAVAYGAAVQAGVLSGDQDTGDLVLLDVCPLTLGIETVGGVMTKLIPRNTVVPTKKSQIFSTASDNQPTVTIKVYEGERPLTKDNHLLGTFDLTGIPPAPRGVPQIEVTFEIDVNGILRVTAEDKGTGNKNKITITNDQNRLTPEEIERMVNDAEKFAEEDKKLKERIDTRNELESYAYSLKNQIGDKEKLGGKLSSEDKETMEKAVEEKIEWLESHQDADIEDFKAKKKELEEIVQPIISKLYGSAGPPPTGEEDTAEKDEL

Row | Variant | effect of a mutation on the interaction
1 | MAPQSLPSSRMAPLGMLLGLLMAACFTFCLSHQNLKEFALTNPEKSSTKETERKETKAEEELDAEVLEVFHPTHEWQALQPGQAVPAGSHVRLNLQTGEREAKLQYEDKFRNNLKGKRLDINTNTYTSQDLKSALAKFKEGAEMESSKEDKARQAEVKRLFRPIEELKKDFDELNVVIETDMQIMVRLINKFNSSSSSLEEKIAALFDLEYYVHQMDNAQDLLSFGGLQVVINGLNSTEPLVKEYAAFVLGAAFSSNPKVQVEAIEGGALQKLLVILATEQPLTAKKKVLFALCSLLRHFPYAQRQFLKLGGLQVLRTLVQEKGTEVLAVRVVTLLYDLVTEKMFAEEEAELTQEMSPEKLQQYRQVHLLPGLWEQGWCEITAHLLALPEHDAREKVLQTLGVLLTTCRDRYRQDPQLGRTLASLQAEYQVLASLELQDGEDEGYFQELLGSVNSLPKELR [L457P] | decreasing interaction strength
